# Laboratory results from publication PMC3566092.
# What was measured:
# [1] = target: Recombinant His-tagged WIP1ΔEx6 (UniProt O15297)
# [2] = target: Recombinant His-tagged WIP1ΔEx6 (UniProt O15297); remark: listed apart in the source
# Sequence of GST-Tax (P03409 whole entry): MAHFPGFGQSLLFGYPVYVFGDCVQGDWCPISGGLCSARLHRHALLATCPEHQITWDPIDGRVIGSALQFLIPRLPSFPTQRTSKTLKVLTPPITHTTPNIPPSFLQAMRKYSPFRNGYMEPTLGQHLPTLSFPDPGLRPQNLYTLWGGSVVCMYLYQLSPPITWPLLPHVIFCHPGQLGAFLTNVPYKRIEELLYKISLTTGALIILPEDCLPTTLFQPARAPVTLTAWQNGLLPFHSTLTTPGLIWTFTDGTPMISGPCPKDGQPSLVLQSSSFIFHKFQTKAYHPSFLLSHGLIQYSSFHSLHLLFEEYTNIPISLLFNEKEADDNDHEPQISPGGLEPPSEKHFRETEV
substance,measurement,setting,value
GST-Tax (from UniProt P03409 1-353) (natural protein),"in vitro phosphatase assay: free phosphate released from the p38 (pT180) phosphopeptide by His-WIP1 with GST-Tax, against His-WIP1 alone",[1],2 fold
same,"in vitro phosphatase assay: free phosphate released from the H2AX (pS139) phosphopeptide by His-WIP1 (20 ng) with GST-Tax (100 ng), against His-WIP1 alone or with GST",[2],2 fold
